# Test results taken from patent publication US20240228656A1.
# Target: cynomolgus EpCAM protein (cynomolgus)
# Experiment: colorimetric ELISA
# Sequence of cynomolgus EpCAM protein (cynomolgus) (Q1WER1 27-265 limits assumed): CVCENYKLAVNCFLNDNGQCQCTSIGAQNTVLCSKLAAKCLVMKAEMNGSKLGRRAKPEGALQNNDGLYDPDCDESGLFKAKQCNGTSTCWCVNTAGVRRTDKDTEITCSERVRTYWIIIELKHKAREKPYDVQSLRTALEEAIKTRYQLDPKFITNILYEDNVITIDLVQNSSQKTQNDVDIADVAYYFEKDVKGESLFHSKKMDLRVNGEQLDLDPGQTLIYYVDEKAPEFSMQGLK
Cynomolgus EpCAM/Control,ELISA absorbance [absorbance],Binder
2,0.2,EPL159 (VHH) VHH: QVQLQESGGGLVQAGGSLRLSCAASGFAFGNHWMYWYRQAPGRGRELVASISSGGSTNYVDSVKGRFTISRDNARNTVYLQMYSLKPEDTAVYYCGTSDNWGQGTQVTVSS
2,0.4,EPL145 (VHH) VHH: QVQLQESGGGLVQAGGSLRLSCAASGFIFRAASMGWFRQSPGNERELVATVSSGGFTNYADSVKGRFTISRDNAKNTVYLQMNSLKPEDTAVYFCGATFVRSDGHHTIYGQGTQVTVSS
